Data: patent publication US20040120946A1
One block for each binder: values may come before it. Where no end group is shown, it is not given here.

How the values were obtained:
[1] = molecular target: antibody against M2 muscarinic receptor in DCM patient serum C (human); assay: batch adsorption with DCM patient serum C, 37 C, 2 h; antibody left in supernatant read by ELISA on plate-coated M2R peptide
[2] = molecular target: antibody against β1-adrenoceptor in DCM patient serum A (human); assay: batch adsorption: 50 uL adsorbent with 300 uL DCM patient serum A, 37 C, 2 h; antibody left in supernatant read by ELISA on plate-coated β1AR2nd peptide
[3] = molecular target: antibody against β1-adrenoceptor in DCM patient serum D (human); assay: batch adsorption with DCM patient serum D, 37 C, 2 h; antibody left in supernatant read by ELISA on plate-coated β1AR2nd peptide
[4] = molecular target: antibody against β1-adrenoceptor in DCM patient serum B (human); assay: batch adsorption with DCM patient serum B, 37 C, 2 h; antibody left in supernatant read by ELISA on plate-coated β1AR2nd peptide

Binder: VRTVEDGECYIQFFSNAAVTFGTAIPAKK (also: immobilized on Eupergit C 250 L) [peptide (SEQ ID NO:10) immobilized on Eupergit C 250 L (Eu-SEQ ID NO:10)]
Adsorptive capacity [1]: 60%

Binder: RAESDEARRCYNDPKCCDFVTNR [peptide (SEQ ID NO:4) immobilized on epoxy-activated GCL2000m (GCL2000m-SEQ ID NO:4)]
Adsorptive capacity [2]: 35%

B2: peptide (SEQ ID NO:9) immobilized on epoxy-activated Kac (Kac-SEQ ID NO:9) (peptide)
peptide: HWWRAESDEARRCYNDPKCCDFVTNRGAC
modifications: cysteine pairing not given here; also: immobilized on epoxy-activated cellulose gel Kac
Adsorptive capacity [4]: 70%

Results, then the binder that gave them:

Adsorptive capacity [3]: 80%
B1: peptides (SEQ ID NOS:11,12) co-immobilized on epoxy-activated Kac (Kac-SEQ ID NOS:11,12) (protein)
peptide 1: HWWRAESDEARRCYNDPKCCDFVTNRAC
peptide 2: VRTVEDGECYIQFFSNAAVTFGTAIC
modifications: cysteine pairing not given here; also: two separate peptides co-immobilized on epoxy-activated Kac

Adsorptive capacity [2]: 15%
B3: second loop of β1-adrenoceptor peptide (β1AR2nd) immobilized on CNBr-activated Sepharose 4B (Sepharose 4B-β1AR2nd) (peptide)
peptide: HWWRAESDEARRCYNDPKCCDFVTNR
modifications: cysteine pairing not given here; also: immobilized on CNBr-activated Sepharose 4B
